Sequences and labels used below:
B1: Peroxisome proliferator-activated receptor gamma coactivator 1-alpha (Homo sapiens), Q9UBK2 (parent)
chain: MAWDMCNQDSESVWSDIECAALVGEDQPLCPDLPELDLSELDVNDLDTDSFLGGLKWCSDQSEIISNQYNNEPSNIFEKIDEENEANLLAVLTETLDSLPVDEDGLPSFDALTDGDVTTDNEASPSSMPDGTPPPQEAEEPSLLKKLLLAPANTQLSYNECSGLSTQNHANHNHRIRTNPAIVKTENSWSNKAKSICQQQKPQRRPCSELLKYLTTNDDPPHTKPTENRNSSRDKCTSKKKSHTQSQSQHLQAKPTTLSLPLTPESPNDPKGSPFENKTIERTLSVELSGTAGLTPPTTPPHKANQDNPFRASPKLKSSCKTVVPPPSKKPRYSESSGTQGNNSTKKGPEQSELYAQLSKSSVLTGGHEERKTKRPSLRLFGDHDYCQSINSKTEILINISQELQDSRQLENKDVSSDWQGQICSSTDSDQCYLRETLEASKQVSPCSTRKQLQDQEIRAELNKHFGHPSQAVFDDEADKTGELRDSDFSNEQFSKLPMFINSGLAMDGLFDDSEDESDKLSYPWDGTQSYSLFNVSPSCSSFNSPCRDSVSPPKSLFSQRPQRMRSRSRSFSRHRSCSRSPYSRSRSRSPGSRSSSRSCYYYESSHYRHRTHRNSPLYVRSRSRSPYSRRPRYDSYEEYQHERLKREEYRREYEKRESERAKQRERQRQKAIEERRVIYVGKIRPDTTRTELRDRFEVFGEIEECTVNLRDDGDSYGFITYRYTCDAFAALENGYTLRRSNETDFELYFCGRKQFFKSNYADLDSNSDDFDPASTKSKYDSLDFDSLLKEAQRSLRR
partner: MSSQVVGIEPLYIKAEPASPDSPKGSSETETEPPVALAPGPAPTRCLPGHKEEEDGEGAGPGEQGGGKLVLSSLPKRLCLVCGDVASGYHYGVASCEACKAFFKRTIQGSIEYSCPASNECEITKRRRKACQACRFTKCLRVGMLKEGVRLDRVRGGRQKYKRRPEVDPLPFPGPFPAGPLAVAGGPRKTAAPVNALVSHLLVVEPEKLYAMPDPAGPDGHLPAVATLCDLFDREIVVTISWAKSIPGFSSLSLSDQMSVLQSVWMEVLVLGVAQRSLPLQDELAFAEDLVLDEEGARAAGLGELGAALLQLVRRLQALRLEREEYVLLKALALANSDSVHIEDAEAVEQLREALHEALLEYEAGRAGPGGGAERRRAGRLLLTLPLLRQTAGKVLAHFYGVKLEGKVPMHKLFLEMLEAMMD
B2: Steroid hormone receptor ERR1 (Homo sapiens), P11474 (parent)
chain: B1 partner
partner: B1 chain
B3: Estrogen receptor (Homo sapiens), P03372 (parent)
chain: MTMTLHTKASGMALLHQIQGNELEPLNRPQLKIPLERPLGEVYLDSSKPAVYNYPEGAAYEFNAAAAANAQVYGQTGLPYGPGSEAAAFGSNGLGGFPPLNSVSPSPLMLLHPPPQLSPFLQPHGQQVPYYLENEPSGYTVREAGPPAFYRPNSDNRRQGGRERLASTNDKGSMAMESAKETRYCAVCNDYASGYHYGVWSCEGCKAFFKRSIQGHNDYMCPATNQCTIDKNRRKSCQACRLRKCYEVGMMKGGIRKDRRGGRMLKHKRQRDDGEGRGEVGSAGDMRAANLWPSPLMIKRSKKNSLALSLTADQMVSALLDAEPPILYSEYDPTRPFSEASMMGLLTNLADRELVHMINWAKRVPGFVDLTLHDQVHLLECAWLEILMIGLVWRSMEHPGKLLFAPNLLLDRNQGKCVEGMVEIFDMLLATSSRFRMMNLQGEEFVCLKSIILLNSGVYTFLSSTLKSLEEKDHIHRVLDKITDTLIHLMAKAGLTLQQQHQRLAQLLLILSHIRHMSNKGMEHLYSMKCKNVVPLYDLLLEMLDAHRLHAPTSRGGASVEETDQSHLATAGSTSSHSLQKYYITGEAEGFPATV
partner: B1 chain

In one experiment the parent is B1. To be noted: with err1_human ESRRA.
With L211A, the “effect of a mutation on the interaction” value is “decreasing interaction strength”.

With Y213A, the “effect of a mutation on the interaction” value was “disrupting interaction strength”.

In the case of C207E, the “effect of a mutation on the interaction” value was “disrupting interaction strength”.

For C207S, the “effect of a mutation on the interaction” value is given as “disrupting interaction strength”.

As to L210A, the “effect of a mutation on the interaction” value was “disrupting interaction strength”.

The next experiment covers variants of B1. To be noted: with err1_human ESRRA. This is another data set of the same source.
Consider P202A;Q203A, for which the “effect of a mutation on the interaction” value is recorded as “with no effect”.

As for R204A;R205A, the “effect of a mutation on the interaction” value is given as “disrupting interaction strength”.

In a further experiment the parent is B1. The following applies: with err1_human ESRRA. This is another data set of the same source.
Consider K212R, for which the “effect of a mutation on the interaction” value is recorded as “decreasing interaction strength”.

A further experiment covers variants of B1. To be noted: with err1_human ESRRA. This is another data set of the same source.
On to L144A;L210A, for which the “effect of a mutation on the interaction” value is recorded as “disrupting interaction strength”.

For the variant L144A, the “effect of a mutation on the interaction” value was “decreasing interaction strength”.

For the variant L210A, the “effect of a mutation on the interaction” value was “decreasing interaction strength”.

In another experiment the parent is B1. The following applies: with err1_human ESRRA. The source holds these as a separate data set.
L144A: the “effect of a mutation on the interaction” value is reported as “disrupting interaction strength”.

The next experiment covers variants of B2. To be noted: with prgc1_human PPARGC1A.
As for E343A, the “effect of a mutation on the interaction” value is on record as “decreasing interaction strength”.

In another experiment the parent is B2. To be noted: with prgc1_human PPARGC1A. The source holds these as a separate data set.
For E343A, the “effect of a mutation on the interaction” value is recorded as “with no effect”.

In another experiment the parent is B2. The following applies: with prgc1_human PPARGC1A. This is another data set of the same source.
With H341A, the “effect of a mutation on the interaction” value was “decreasing interaction strength”.

Regarding D423A, the “effect of a mutation on the interaction” value is on record as “decreasing interaction strength”.

Regarding M258V;Q262E, the “effect of a mutation on the interaction” value is “disrupting interaction strength”.

Variants of B2 are the subject of a further experiment. To be noted: with prgc1_human PPARGC1A. This is another data set of the same source.
As for D423A, the “effect of a mutation on the interaction” value was “with no effect”.

In a further experiment the parent is B2. The following applies: with prgc1_human PPARGC1A. The source holds these as a separate data set.
On to S259H, for which the “effect of a mutation on the interaction” value is “decreasing interaction strength”.

As to D338A, the “effect of a mutation on the interaction” value is reported as “disrupting interaction strength”.

Regarding R315A, the “effect of a mutation on the interaction” value was “disrupting interaction strength”.

A further experiment covers variants of B3. To be noted: with prgc1_human PPARGC1A.
On to V376M;E380Q, for which the “effect of a mutation on the interaction” value is listed as “increasing interaction strength”.

The values above are taken from IntAct's records for PubMed 18441008.
